Consider one substance from patent US6485936.

The target in the test is GAL4-HSF2N96C238 (HSF2 deletion mutant fused with the yeast GAL4-BD derived from pM) (yeast; human) (UniProt P04386). Description: cell-based or functional assay.

Substance “VP16-HSF2BP (HSF2BP fused with the VP16 transcriptional activation domain derived from pVP16) (from UniProt O75031 1-334)” had a luciferase reporter activity in two-hybrid assay in K562 cells (induction fold against control VP16) of 11 fold.
